B1: LINE1-full (parent)
chain: UACGUAGGUGGUUUUCCCCUGAUAGUGCUAAGGGGGCCUGGAAGUUUGGACUGGGCAGAGCUCAACACAGCGUGGCAAAGUGGCUGUGGCUAGACUGCCUCUCUGGAUUCCUCGUCACUCAGCAGGGCAUCUCUGAGAGAAAUGCC

Variants of: B1
Experiment: self-cleavage, relative activity (ratio to wild type); higher = more cleavage; in vitro, sequencing; the parent is a self-cleaving ribozyme

| Variant | self-cleavage |
| --- | --- |
| UACGUAGGUGGUUUUCCCCUGAUAGUGCUAAGGGGGCCUGGAAGUUUGGACUGGGCAGAGCUCAACACAGCGCGGCAAAGUGGCUGUGGCUAGACUGCCUCUCUGGAUUCCUCGUCACUCAGCAGGGAAUCUCUGAGAGAAAUGCC [U73C C128A] | 0.94 |
| UACGUAGGUGGUUUUCCCCUGAUAGUGCUAAGGGGGCCUGGAAGUUUGGACUGGGCAGAGCUCAACACAGCGCGGCAAAGUGGCUGUGGCUAGACUGCCUCUCUGGAUUCCUCGUCACUCAGCAGGGCAUCUCUGAGAGAAAUGAC [U73C C145A] | 1.44 |
| UACGUAGGUGGUUUUCCCCUGAUAGUGCUAAGGGGGCCUGGAAGUUUGGACUGGGCAGAGCUCAACACAGCGCGGCAAAGUGGCUGUGGCUAGACUGCCUCUCUGGAUUCCUCGUCACUCAGCAGGGCAUCUCUGAGAGAAAUGCA [U73C C146A] | 2.24 |
| UACGUAGGUGGUUUUCCCCUGAUAGUGCUAAGGGGGCCUGGAAGUUUGGACUGGGCAGAGCUCAACACAGCGCGGCAAAGUGGCUGUGGCUAGACUGCCUCUCUGGAUUCCUCGUCACUCAGCAGGGCAUCUCUGAGAGAAAUGCU [U73C C146U] | 1.04 |
| UACGUAGGUGGUUUUCCCCUGAUAGUGCUAAGGGGGCCUGGAAGUUUGGACUGGGCAGAGCUCAACACAGCGCUGCAAAGUGGCUGUGGCUAGACUGCCUCUCUGGAUUCCUCGUCACUCAGCAGGGCAUCUCUGAGAGAAAUGCC [U73C G74U] | 1.64 |
| UACGUAGGUGGUUUUCCCCUGAUAGUGCUAAGGGGGCCUGGAAGUUUGGACUGGGCAGAGCUCAACACAGCGCGGCAAAGUGACUGUGGCUAGACUGCCUCUCUGGAUUCCUCGUCACUCAGCAGGGCAUCUCUGAGAGAAAUGCC [U73C G83A] | 1.63 |
| UACGUAGGUGGUUUUCCCCUGAUAGUGCUAAGGGGGCCUGGAAGUUUGGACUGGGCAGAGCUCAACACAGCGCGGCAAAGUGGCUUUGGCUAGACUGCCUCUCUGGAUUCCUCGUCACUCAGCAGGGCAUCUCUGAGAGAAAUGCC [U73C G86U] | 0.03 |
| UACGUAGGUGGUUUUCCCCUGAUAGUGCUAAGGGGGCCUGGAAGUUUGGACUGGGCAGAGCUCAACACAGCGCGGCAAAGUGGCUGUAGCUAGACUGCCUCUCUGGAUUCCUCGUCACUCAGCAGGGCAUCUCUGAGAGAAAUGCC [U73C G88A] | 0.06 |
| UACGUAGGUGGUUUUCCCCUGAUAGUGCUAAGGGGGCCUGGAAGUUUGGACUGGGCAGAGCUCAACACAGCGCGGCAAAGUGGCUGUGGCUAGACUGCCUCUCUGGAUUCCUCGUCACUCAACAGGGCAUCUCUGAGAGAAAUGCC [U73C G122A] | 1.19 |
| UACGUAGGUGGUUUUCCCCUGAUAGUGCUAAGGGGGCCUGGAAGUUUGGACUGGGCAGAGCUCAACACAGCGCGGCAAAGUGGCUGUGGCUAGACUGCCUCUCUGGAUUCCUCGUCACUCAGCAAGGCAUCUCUGAGAGAAAUGCC [U73C G125A] | 0.8 |
| UACGUAGGUGGUUUUCCCCUGAUAGUGCUAAGGGGGCCUGGAAGUUUGGACUGGGCAGAGCUCAACACAGCGCGGCAAAGUGGCUGUGGCUAGACUGCCUCUCUGGAUUCCUCGUCACUCAGCACGGCAUCUCUGAGAGAAAUGCC [U73C G125C] | 2.47 |
| UACGUAGGUGGUUUUCCCCUGAUAGUGCUAAGGGGGCCUGGAAGUUUGGACUGGGCAGAGCUCAACACAGCGCGGCAAAGUGGCUGUGGCUAGACUGCCUCUCUGGAUUCCUCGUCACUCAGCAGAGCAUCUCUGAGAGAAAUGCC [U73C G126A] | 2.44 |
| UACGUAGGUGGUUUUCCCCUGAUAGUGCUAAGGGGGCCUGGAAGUUUGGACUGGGCAGAGCUCAACACAGCGCGGCAAAGUGGCUGUGGCUAGACUGCCUCUCUGGAUUCCUCGUCACUCAGCAGUGCAUCUCUGAGAGAAAUGCC [U73C G126U] | 1.85 |
| UACGUAGGUGGUUUUCCCCUGAUAGUGCUAAGGGGGCCUGGAAGUUUGGACUGGGCAGAGCUCAACACAGCGCGGCAAAGUGGCUGUGGCUAGACUGCCUCUCUGGAUUCCUCGUCACUCAGCAGGUCAUCUCUGAGAGAAAUGCC [U73C G127U] | 0.92 |
| UACGUAGGUGGUUUUCCCCUGAUAGUGCUAAGGGGGCCUGGAAGUUUGGACUGGGCAGAGCUCAACACAGCGCGGCAAAGUGGCUGUGGCUAGACUGCCUCUCUGGAUUCCUCGUCACUCAGCAGGGCAUCUCUAAGAGAAAUGCC [U73C G135A] | 1.07 |
| UACGUAGGUGGUUUUCCCCUGAUAGUGCUAAGGGGGCCUGGAAGUUUGGACUGGGCAGAGCUCAACACAGCGCGGCAAAGUGGCUGUGGCUAGACUGCCUCUCUGGAUUCCUCGUCACUCAGCAGGGCAUCUCUGAUAGAAAUGCC [U73C G137U] | 2.46 |
| UACGUAGGUGGUUUUCCCCUGAUAGUGCUAAGGGGGCCUGGAAGUUUGGACUGGGCAGAGCUCAACACAGCGCGGCAAAGUGGCUGUGGCUAGACUGCCUCUCUGGAUUCCUCGUCACUCAGCAGGGCAUCUCUGAGAUAAAUGCC [U73C G139U] | 2.83 |
| UACGUAGGUGGUUUUCCCCUGAUAGUGCUAAGGGGGCCUGGAAGUUUGGACUGGGCAGAGCUCAACACAGCGCGGCAAAGAGGCUGUGGCUAGACUGCCUCUCUGGAUUCCUCGUCACUCAGCAGGGCAUCUCUGAGAGAAAUGCC [U73C U81A] | 2.36 |
| UACGUAGGUGGUUUUCCCCUGAUAGUGCUAAGGGGGCCUGGAAGUUUGGACUGGGCAGAGCUCAACACAGCGCGGCAAAGGGGCUGUGGCUAGACUGCCUCUCUGGAUUCCUCGUCACUCAGCAGGGCAUCUCUGAGAGAAAUGCC [U73C U81G] | 2.04 |
| UACGUAGGUGGUUUUCCCCUGAUAGUGCUAAGGGGGCCUGGAAGUUUGGACUGGGCAGAGCUCAACACAGCGCGGCAAAGUGGCAGUGGCUAGACUGCCUCUCUGGAUUCCUCGUCACUCAGCAGGGCAUCUCUGAGAGAAAUGCC [U73C U85A] | 0.08 |

| Variant | self-cleavage |
| --- | --- |
| UACGUAGGUGGUUUUCCCCUGAUAGUGCUAAGGGGGCCUGGAAGUUUGGACUGGGCAGAGCUCAACACAGCGCGGCAAAGUGGCUGUGGCAAGACUGCCUCUCUGGAUUCCUCGUCACUCAGCAGGGCAUCUCUGAGAGAAAUGCC [U73C U91A] | 0.57 |
| UACGUAGGUGGUUUUCCCCUGAUAGUGCUAAGGGGGCCUGGAAGUUUGGACUGGGCAGAGCUCAACACAGCGCGGCAAAGUGGCUGUGGCUAGACAGCCUCUCUGGAUUCCUCGUCACUCAGCAGGGCAUCUCUGAGAGAAAUGCC [U73C U96A] | 0.14 |
| UACGUAGGUGGUUUUCCCCUGAUAGUGCUAAGGGGGCCUGGAAGUUUGGACUGGGCAGAGCUCAACACAGCGCGGCAAAGUGGCUGUGGCUAGACCGCCUCUCUGGAUUCCUCGUCACUCAGCAGGGCAUCUCUGAGAGAAAUGCC [U73C U96C] | 0.11 |
| UACGUAGGUGGUUUUCCCCUGAUAGUGCUAAGGGGGCCUGGAAGUUUGGACUGGGCAGAGCUCAACACAGCGCGGCAAAGUGGCUGUGGCUAGACGGCCUCUCUGGAUUCCUCGUCACUCAGCAGGGCAUCUCUGAGAGAAAUGCC [U73C U96G] | 0.19 |
| UACGUAGGUGGUUUUCCCCUGAUAGUGCUAAGGGGGCCUGGAAGUUUGGACUGGGCAGAGCUCAACACAGCGCGGCAAAGUGGCUGUGGCUAGACUGCCUCUCUGGACUCCUCGUCACUCAGCAGGGCAUCUCUGAGAGAAAUGCC [U73C U108C] | 0.95 |
| UACGUAGGUGGUUUUCCCCUGAUAGUGCUAAGGGGGCCUGGAAGUUUGGACUGGGCAGAGCUCAACACAGCGCGGCAAAGUGGCUGUGGCUAGACUGCCUCUCUGGAUUCCACGUCACUCAGCAGGGCAUCUCUGAGAGAAAUGCC [U73C U112A] | 1.41 |
| UACGUAGGUGGUUUUCCCCUGAUAGUGCUAAGGGGGCCUGGAAGUUUGGACUGGGCAGAGCUCAACACAGCGCGGCAAAGUGGCUGUGGCUAGACUGCCUCUCUGGAUUCCCCGUCACUCAGCAGGGCAUCUCUGAGAGAAAUGCC [U73C U112C] | 1.65 |
| UACGUAGGUGGUUUUCCCCUGAUAGUGCUAAGGGGGCCUGGAAGUUUGGACUGGGCAGAGCUCAACACAGCGCGGCAAAGUGGCUGUGGCUAGACUGCCUCUCUGGAUUCCUCGACACUCAGCAGGGCAUCUCUGAGAGAAAUGCC [U73C U115A] | 1.58 |
| UACGUAGGUGGUUUUCCCCUGAUAGUGCUAAGGGGGCCUGGAAGUUUGGACUGGGCAGAGCUCAACACAGCGCGGCAAAGUGGCUGUGGCUAGACUGCCUCUCUGGAUUCCUCGUCACACAGCAGGGCAUCUCUGAGAGAAAUGCC [U73C U119A] | 1.64 |
| UACGUAGGUGGUUUUCCCCUGAUAGUGCUAAGGGGGCCUGGAAGUUUGGACUGGGCAGAGCUCAACACAGCGCGGCAAAGUGGCUGUGGCUAGACUGCCUCUCUGGAUUCCUCGUCACCCAGCAGGGCAUCUCUGAGAGAAAUGCC [U73C U119C] | 2.11 |
| UACGUAGGUGGUUUUCCCCUGAUAGUGCUAAGGGGGCCUGGAAGUUUGGACUGGGCAGAGCUCAACACAGCGCGGCAAAGUGGCUGUGGCUAGACUGCCUCUCUGGAUUCCUCGUCACUCAGCAGGGCAACUCUGAGAGAAAUGCC [U73C U130A] | 1.2 |
| UACGUAGGUGGUUUUCCCCUGAUAGUGCUAAGGGGGCCUGGAAGUUUGGACUGGGCAGAGCUCAACACAGCGCGGCAAAGUGGCUGUGGCUAGACUGCCUCUCUGGAUUCCUCGUCACUCAGCAGGGCACCUCUGAGAGAAAUGCC [U73C U130C] | 1.81 |
| UACGUAGGUGGUUUUCCCCUGAUAGUGCUAAGGGGGCCUGGAAGUUUGGACUGGGCAGAGCUCAACACAGCGCGGCAAAGUGGCUGUGGCUAGACUGCCUCUCUGGAUUCCUCGUCACUCAGCAGGGCAUCACUGAGAGAAAUGCC [U73C U132A] | 1.25 |
| UACGUAGGUGGUUUUCCCCUGAUAGUGCUAAGGGGGCCUGGAAGUUUGGACUGGGCAGAGCUCAACACAGCGCGGCAAAGUGGCUGUGGCUAGACUGCCUCUCUGGAUUCCUCGUCACUCAGCAGGGCAUCCCUGAGAGAAAUGCC [U73C U132C] | 2.09 |
| UACGUAGGUGGUUUUCCCCUGAUAGUGCUAAGGGGGCCUGGAAGUUUGGACUGGGCAGAGCUCAACACAGCGCGGCAAAGUGGCUGUGGCUAGACUGCCUCUCUGGAUUCCUCGUCACUCAGCAGGGCAUCUCGGAGAGAAAUGCC [U73C U134G] | 1.7 |
| UACGUAGGUGGUUUUCCCCUGAUAGUGCUAAGGGGGCCUGGAAGUUUGGACUGGGCAGAGCUCAACACAGCGCGGCAAAGUGGCUGUGGCUAGACUGCCUCUCUGGAUUCCUCGUCACUCAGCAGGGCAUCUCUGAGAGAAAAGCC [U73C U143A] | 1.63 |
| UACGUAGGUGGUUUUCCCCUGAUAGUGCUAAGGGGGCCUGGAAGUUUGGACUGGGCAGAGCUCAACACAGCGCGGCAAAGUGGCUGUGGCUAGACUGCCUCUCUGGAUUCCUCGUCACUCAGCAGGGCAUCUCUGAGAGAAACGCC [U73C U143C] | 2.13 |
| UACGUAGGUGGUUUUCCCCUGAUAGUGCUAAGGGGGCCUGGAAGUUUGGACUGGGCAGAGCUCAACACAGCGGGGCGAAGUGGCUGUGGCUAGACUGCCUCUCUGGAUUCCUCGUCACUCAGCAGGGCAUCUCUGAGAGAAAUGCC [U73G A77G] | 0.98 |
| UACGUAGGUGGUUUUCCCCUGAUAGUGCUAAGGGGGCCUGGAAGUUUGGACUGGGCAGAGCUCAACACAGCGGGGCAAAGUGGCUGUGGCUAGACUGCCUCUCUGGAUUCCUCGUCACUCGGCAGGGCAUCUCUGAGAGAAAUGCC [U73G A121G] | 2.45 |
